We go through eight molecules from publication doi:10.1101/2025.11.20.689565.

Changes are numbered by the printed parent chain. Names may count otherwise.

For experiment [1], the target named is T1, C. elegans γ-tubulin complex (γTuC): γ-tubulin TBG-1, GCP2 GIP-2-5Myc, GCP3 GIP-1 and MZT-1, P34475;G5EF84. Kind of experiment: pull-down on γTuC-coated beads, anti-SPD-5 immunoblot. The note with it: chain shown with the change, binding 2 hours at 4°C, scale: band intensity relative to SPD-5 135-473 without PLK1. (In western blotting, separated proteins are transferred to a membrane and probed.)
T1 sequence (chain, as listed by the source, chain 1 of 4): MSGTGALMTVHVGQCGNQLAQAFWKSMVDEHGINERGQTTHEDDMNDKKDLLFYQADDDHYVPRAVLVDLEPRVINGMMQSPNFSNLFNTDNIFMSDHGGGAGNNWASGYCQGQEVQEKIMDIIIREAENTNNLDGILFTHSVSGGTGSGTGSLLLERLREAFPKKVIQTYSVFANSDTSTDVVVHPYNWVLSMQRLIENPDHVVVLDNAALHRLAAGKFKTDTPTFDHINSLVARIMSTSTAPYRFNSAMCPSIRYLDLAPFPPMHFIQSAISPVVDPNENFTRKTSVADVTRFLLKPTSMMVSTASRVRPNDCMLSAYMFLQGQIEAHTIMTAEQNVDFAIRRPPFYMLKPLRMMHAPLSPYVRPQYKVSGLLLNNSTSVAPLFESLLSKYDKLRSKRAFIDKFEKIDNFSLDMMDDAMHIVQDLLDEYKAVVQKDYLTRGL
T1 sequence (chain, as listed by the source, chain 2 of 4): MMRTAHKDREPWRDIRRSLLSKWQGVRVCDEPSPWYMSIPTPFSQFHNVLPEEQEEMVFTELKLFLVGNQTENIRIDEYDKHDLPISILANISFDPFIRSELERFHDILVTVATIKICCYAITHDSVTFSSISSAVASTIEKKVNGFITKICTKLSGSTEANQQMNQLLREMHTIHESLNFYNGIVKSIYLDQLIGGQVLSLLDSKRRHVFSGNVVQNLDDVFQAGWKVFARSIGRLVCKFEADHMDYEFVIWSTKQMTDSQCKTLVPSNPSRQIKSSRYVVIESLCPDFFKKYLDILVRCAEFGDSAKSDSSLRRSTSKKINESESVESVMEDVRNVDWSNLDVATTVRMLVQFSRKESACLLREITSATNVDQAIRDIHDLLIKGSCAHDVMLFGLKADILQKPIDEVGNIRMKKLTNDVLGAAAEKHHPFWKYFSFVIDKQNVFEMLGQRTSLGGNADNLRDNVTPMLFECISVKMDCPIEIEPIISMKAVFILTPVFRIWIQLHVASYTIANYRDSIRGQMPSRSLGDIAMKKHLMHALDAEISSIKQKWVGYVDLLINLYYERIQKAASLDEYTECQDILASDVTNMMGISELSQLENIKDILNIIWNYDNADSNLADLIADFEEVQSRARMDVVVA
T1 sequence (chain, as listed by the source, chain 3 of 4): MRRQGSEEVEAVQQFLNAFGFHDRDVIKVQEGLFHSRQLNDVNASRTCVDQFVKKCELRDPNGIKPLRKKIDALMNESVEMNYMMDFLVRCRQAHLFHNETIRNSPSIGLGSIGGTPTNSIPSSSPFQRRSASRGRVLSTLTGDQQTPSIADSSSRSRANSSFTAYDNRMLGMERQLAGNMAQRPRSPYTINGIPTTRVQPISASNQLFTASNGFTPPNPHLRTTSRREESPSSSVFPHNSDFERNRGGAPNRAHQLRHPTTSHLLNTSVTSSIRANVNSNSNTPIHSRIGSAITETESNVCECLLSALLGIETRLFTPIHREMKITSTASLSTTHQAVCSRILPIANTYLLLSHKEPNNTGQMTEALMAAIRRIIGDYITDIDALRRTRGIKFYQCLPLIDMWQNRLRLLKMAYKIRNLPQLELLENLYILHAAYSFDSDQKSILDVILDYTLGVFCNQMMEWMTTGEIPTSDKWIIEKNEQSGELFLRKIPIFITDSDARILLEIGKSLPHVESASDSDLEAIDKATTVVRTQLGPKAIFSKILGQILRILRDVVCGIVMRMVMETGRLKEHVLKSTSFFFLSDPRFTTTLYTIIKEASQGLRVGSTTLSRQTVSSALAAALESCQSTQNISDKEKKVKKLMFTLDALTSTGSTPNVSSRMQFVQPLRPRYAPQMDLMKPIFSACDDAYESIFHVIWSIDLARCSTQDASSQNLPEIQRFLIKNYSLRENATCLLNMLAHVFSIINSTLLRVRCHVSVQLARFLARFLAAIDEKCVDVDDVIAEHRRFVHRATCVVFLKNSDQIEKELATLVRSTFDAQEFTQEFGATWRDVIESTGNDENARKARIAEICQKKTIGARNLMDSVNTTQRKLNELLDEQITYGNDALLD
T1 sequence (chain, as listed by the source, chain 4 of 4): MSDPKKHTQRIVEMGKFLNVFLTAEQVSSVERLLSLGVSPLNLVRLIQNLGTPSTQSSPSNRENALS

Experiment [2] concerns the target T1, C. elegans γ-tubulin complex (γTuC): …. Kind of experiment: pull-down on γTuC-coated beads, anti-MBP immunoblot. The note with it: chain shown with the change, binding 2 hours at 4°C, scale: band intensity relative to SPD-5 1-113 without PLK1.
The mark [3] stands for this setting: +PLK1 preincubation (2.0 μM fragment, 500 nM PLK1(T194D), 0.2 mM ATP, 1 hour at 23°C), 75 nM SPD-5 ….

B1: untagged SPD-5 aa 135-473, PLK1-phosphorylated, P91349 S170A; T178A; T198A (protein)
chain: MQSRIETSEDNFARQMKEFEAQKHAMEERIKELELAATDANNTAVGSFRGTLDDILKKNDPDFALTSGYEERKINDLEAKLLSEIDKVAELEDHIQQLRQELDDQSARLADSENVRAQLEAATGQGILGAAGNAMVPNSTFMIGNGRESQTRDQLNYIDDLETKLADAKKENDKARQALVEYMNKCSKLEHEIRTMVKNSTFDSSSMLLGGQTSDELKIQIGKVNGELNVLRAENRELRIRCDQLTGGDGNLSISLGQSRLMAGIATNDVDSIGQGNETGGTSMRILPRESQLDDLEESKLPLMDTSSAVRNQQQFASMWEDFESVKDSLQNNHNDTLE
The molecule B1 came in with a response in experiment [1] (setting [3]) of 0.1.

B2: untagged SPD-5 aa 135-473, not phosphorylated, P91349 T274A; T335A; S339A; S340A (protein)
chain: B1 chain with A36S, A44T, A64T, T140A, T201A, S205A, S206A
In experiment [1] (no PLK1, 75 nM SPD-5 fragment), B2 had a response of 0.1.

B3: untagged SPD-5 aa 135-473, PLK1-phosphorylated, P91349 T274A; T335A; S339A; S340A (protein)
chain: B1 chain with A36S, A44T, A64T, T140A, T201A, S205A, S206A
Molecule B3 displayed a response in experiment [1] (setting [3]) of 2.8.

B4: untagged SPD-5 aa 135-473, PLK1-phosphorylated, P91349 S170A; T178A; T198A; T274A; T335A; S339A; S340A (protein)
chain: B1 chain with T140A, T201A, S205A, S206A
Molecule B4 returned a response in experiment [1] (setting [3]) of 0.

B5: untagged SPD-5 aa 135-473, not phosphorylated, P91349 S170A; T178A; T198A (protein)
chain: B1 chain
Molecule B5 displayed a response in experiment [1] (no PLK1, 75 nM SPD-5 fragment) of 0.7.

B6: untagged SPD-5 aa 135-473, not phosphorylated, P91349 S170A; T178A; T198A; T274A; T335A; S339A; S340A (protein)
chain: B1 chain with T140A, T201A, S205A, S206A
For the molecule B6, in experiment [1] (no PLK1, 75 nM SPD-5 fragment), the response amounted to 0.1.

B7: MBP-6His-HA (M6HH)-tagged SPD-5 aa 1-113, PLK1-phosphorylated, P91349 S5A; S11A (protein)
chain: MEDNAVLNEDANLEHVEGQPRRSMSQPVLNVEGDKRTSSTSATQQQVLSGAFSSADVRSIPIIQTWEENKALKTKITILRGELQMYQRRYSEAKEASQKRVKEVMDDYVDLKL
B7: the response in experiment [2] (setting [3]) is 4.7.

B8: MBP-6His-HA (M6HH)-tagged SPD-5 aa 1-113, not phosphorylated, P91349 S5A; S11A (protein)
chain: B7 chain
B8 displayed a response in experiment [2] (no PLK1, 75 nM SPD-5 fragment) of 0.6.
